Assay results published in patent US20140017790A1, “CONTROL AGENT FOR CONTROLLING UNDIFFERENTIATED STATE AND USE THEREOF” (RIKEN, priority 2011, published 2014).

Experiments:
Format in all cases: cell-based
KLF4 = test: KLF4/GAPDH ratio in human iPS cells; details: feeder conditions, 6 days, negative control (bFGF) = 1
Protocol: Then, the ratio of the phosphorylated AKT to the non-phosphorylated AKT (p-AKT/AKT) was determined. Assuming that the value of the p-AKT/AKT in the negative control was “1”, the relative value was calculated. Also, the ratio of the KLF4 gene expression to the GAPDH gene expression (KLF4/GAPDH) was determined. Assuming that KLF4/GAPDH in the negative control was “1”, the relative value was calculated.
Also, the ratio of KLF4 to GAPDH (KLF4/GAPDH) was determined. Assuming that KLF4/GAPDH in the negative control was “1”, the relative value was calculated. FIG. 15D is a graph showing the relative value of the ratio of KLF4 to GAPDH (KLF4/GAPDH).

mouse iPS cells = test: flow cytometry analysis of Nanog-GFP positive cell population
Protocol: In the present example, the above-described DMEM to which the LIF and mouse recombinant CCL2 (MCP-1, #479-JE-010, R&D Systems) had been added was used. In the medium, the final concentration of the LIF was set to 25 units/ml, and the concentration of the recombinant CCL2 was set to 500 ng/ml. The amount of the medium to be added to a 12-well dish was set to 1 ml per well. On the other hand, in a comparative example, the above-described DMEM containing the LIF but not containing the CCL2 was used. The final concentration of the LIF was set to 25 units/ml.
The mouse iPS cells cultured under feeder free conditions were cultured in the medium of the example and the medium of the comparative example, respectively. The mouse iPS cells were seeded in the 12-well dish at a density of 6×10^4 cells/well.
The flow cytometry analysis was carried out in the following manner. After the mouse iPS cells had been cultured in the above described manner, the cells were collected from the wells, and were suspended again in an ES medium containing 25 units/ml of LIF. As the ES medium, a DMEM (containing glucose at a high concentration and containing no sodium pyruvate) containing 15% FBS, 0.1 mmol/l NEAA, and 0.1 mmol/l 2-Mercaptoethanol was used. Then, this cell suspension was applied to a flow cytometer (trade name: BD FACSAria (registered trademark) II, Becton, Dickinson and Company), and analyzed in accordance with the protocol of the flow cytometer. At this time, as a cell population having pluripotency, i.e., undifferentiated cell population, a Nanog-GFP-positive region sorted out based on FITC-A>10^4 was monitored. The raw data was analyzed by a program (FlowJo, ver. 7), and plotted in the form of density plot. The iPS cells were produced from MEF of a modified mouse with a GFP protein being incorporated in the promoter region of the Nanog gene. Thus, when the cells expressed the Nanog gene, it means the cells were Nanog-GFP positive, so that the GFP was produced and this GFP was detected by the FACS. […]

AKT = test: Western blotting, phosphorylation of AKT in mouse iPS cells; details: CCL2 overexpressed, relative to negative control
Protocol: The mouse iPS cells transfected with the Ccl2 expression vector were cultured for 24 hours in the same manner as in Example 1. After the culture, the mouse iPS cells were washed with PBS, and then were suspended in 100 μl of a mammalian m-PER lysis buffer. The suspension was passed through a 26-gauge needle for 10 minutes to homogenize the cells. Then, the suspension was centrifuged at 13,000 rpm and 4° C. for 5 minutes, and the supernatant was collected. The protein concentration in the supernatant was measured using a Pierce (registered trademark) BCA Protein assay (trade name, Thermo Scientific). Next, the supernatant was subjected to Western blotting to detect a target protein. Specifically, first, the supernatant (total protein: 10 μg) was applied to a Novex Gel electrophoresis system with 4%-12% Bis-Tris gels, and was blotted on a nitrocellulose membrane. Then, the membrane was incubated with a primary antibody against the target protein. After washing the membrane, the membrane was incubated with a labeled secondary antibody labeled with horseradish peroxidase, and a color-developing reaction was caused using a coloring reagent (trade name: ECL plus, GE Healthcare). Then, luminescence on the membrane was detected using a Fuji LAS-3000 luminescent image analyzer. […]

B1: CCL2: mouse recombinant CCL2 (MCP-1, #479-JE-010, R&D Systems); in Examples 1, 3, 4(1), 5 mouse CCL2 (SEQ ID NO: 3) overexpressed from Ccl2 expression vector (protein, listed as Mus musculus)
chain: MQVPVMLLGLLFTVAGWSIHVLAQPDAVNAPLTCCYSFTSKMIPMSRLESYKRITSSRCPKEAVVFVTKLKREVCADPKKEWVQTYIKNLDRNQMRSEPTTLFKTASALRSSAPLNVKLTRKSEANASTTFSTTTSSTSVGVTSVTVN
- KLF4 expression (KLF4/GAPDH), relative value (KLF4): about 1.7 fold
- proportion of the Nanog-GFP positive mouse iPS cells (mouse iPS cells; CCL2 500 ng/ml, LIF 25, 50, 100, 500 and 1000 units/ml, versus no CCL2): increased
- proportion of the Nanog-GFP positive mouse iPS cells (mouse iPS cells; recombinant CCL2 500 ng/ml + LIF 25 units/ml, feeder free, 24 hours, comparative medium (LIF only) 37.6%): 67.3%
- number of undifferentiated cells having pluripotency (Nanog-GFP positive) (mouse iPS cells; recombinant CCL2 500 ng/ml added to PI3K inhibitor 5 ng/ml + LIF 25 units/ml): further increase
- phosphorylation of AKT (pAKT/AKT) (AKT): not promoted
